Experimental data published in the supplement of paper PMC9170038.

System: MS2 coat protein
Assay: apparent KD of MS2 coat protein; designed switch direction (-1 OFF switch, 1 ON switch): 1; higher = weaker reporter binding
Method in brief: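 Apparent KD, taken as the median over clusters for each design, was obtained by curve-fitting normalised cluster fluorescence. Designed RNA switches had been transcribed on Illumina chips by stalled E. coli RNA polymerase and titrated with SNAP-549-labelled MS2 coat protein, doubling from 0.7 or 1.5 nM to 3 µM.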

[1] = input ligand: microRNA oligo, concentration not stated
[2] = Eterna round: R95, input ligand: FMN 200 uM
[3] = Eterna round: R95, input ligand: microRNA oligo, concentration not stated
[4] = Eterna round: R95, input ligand: none

Sequence	apparent KD of MS2 coat protein (input ligand: FMN 200 uM)	apparent KD of MS2 coat protein [1]	apparent KD of MS2 coat protein (input ligand: none)	apparent KD of MS2 coat protein [2]	apparent KD of MS2 coat protein [3]	apparent KD of MS2 coat protein [4]
ACUGCAAUUAACGCCUACAUGAGGAUCACCCAUGUAUGUAGGCAGGAUAUCGUUUGCUUUGCAAACGAGAAGGGCUGUAGUAGC [salish99_SSNG3_R04_003] (Eterna round: R96, puzzle: Same State NG 3)	59.1 nM	59.4 nM	64.1 nM	–	–	–
AGAGAACAUGAGGAUCACCCAUGUGGGAUGGGCAUAGGAUAUAGAGGAGAGAGGGAGGAACUAGAAGGAUGAUGGA [JR_SS1_Sub079] (puzzle: Same State 1)	–	–	–	43 nM	103 nM	50.3 nM
AGAUCAUGACGAGGAUAUGGAACAUGAGGAUCACCCAUGUAUGUUCCAUAACGCGAACGACGAAUCCAGAAGGCGUCGUGGUCA [JL SSNG2 1.09] (Eterna round: R96, puzzle: Same State NG 2)	7.15 nM	18.6 nM	28.3 nM	–	–	–
AGAUGUUAAUUAGGAUAUGGUCACAUGAGGAUCACCCAUGUAACGAUGAUACGAUGUGGUCAAGACUAGAAGGGAUCGCUAACA [SameState NG2 #72] (Eterna round: R96, puzzle: Same State NG 2)	204 nM	86.4 nM	155 nM	–	–	–
AGCCUGAGUCGAGGAUAUUAUGGAUCCUUUAAUACAUGAGGAUCACCCAUGUAAUUAAUUAUACAUGAGAAGGCGACUCAGGCA [SSNG2/11-A1] (Eterna round: R96, puzzle: Same State NG 2)	10.9 nM	30.4 nM	129 nM	–	–	–
AGCGCGGUCUCGCAGGAUAUCCACAUUCCUACAUGAGGAUCACCCAUGUCGCUGCAGGAUAUUAGGGAGAAGGGUGAUGCCGCGG [Quesed] (puzzle: Same State 2)	–	–	–	22.7 nM	42.7 nM	48.4 nM
AGCUAUUAAUCAGGAUAUAGUGACAUGAGGAUCACCCAUGUAUUAAUGAUGAAAUGUGGUCGCCGCUAGAAGGGAUUACUAACA [SameState NG2 #44] (Eterna round: R96, puzzle: Same State NG 2)	67.1 nM	22 nM	30.1 nM	–	–	–
AGCUAUUAAUCAGGAUAUAGUGACAUGAGGAUCACCCAUGUAUUGAUGAUUAAAUGUGGUCACCGCUAGAAGGGAUUACUAACA [SameState NG2 #47] (Eterna round: R96, puzzle: Same State NG 2)	25.6 nM	23.3 nM	30.1 nM	–	–	–
AGCUAUUAAUCAGGAUAUGGUCACAUGAGGAUCACCCAUGUAUAGAUGAUUGAAUGUGGUCUACACUAGAAGGGAUUGCUAACA [SameState NG2 #58] (Eterna round: R96, puzzle: Same State NG 2)	167 nM	96.1 nM	150 nM	–	–	–
AGCUAUUAAUCAGGAUAUGGUCACAUGAGGAUCACCCAUGUGUAGAUGAUAAAAUGUGGUCAACACUAGAAGGGAUUGCUAACA [SameState NG2 #61] (Eterna round: R96, puzzle: Same State NG 2)	26.8 nM	25.1 nM	37 nM	–	–	–
AGCUAUUACGAAGGAUAUAGUAACAUGAGGAUCACCCAUGUUUACAUGAUUAAUUGUGAUCACGUCUAGAAGGUUGUACUAACA [SameState NG2 #34] (Eterna round: R96, puzzle: Same State NG 2)	33.1 nM	30.2 nM	37.1 nM	–	–	–
AGGAAACAUGAGGAUCACCCAUGUAAGAUAUACACAGGAUAUGCGAAAAGAAACAAAGAAGCAGAAGGGUGGAAAA [75%, Ex sub1, 11] (Eterna round: R96, puzzle: Same State 1)	16.6 nM	22.7 nM	43.5 nM	–	–	–
AGGAGUAUCUGACAUGAGGAUCACCCAUGUUCCAUUCUACGAUAGGAUAUCGAAAUACAAAGACGCGAGAAGGAUCAGAACCUA [Eternabot solution 48] (Eterna round: R96, puzzle: Same State NG 3)	23.2 nM	16.5 nM	26.8 nM	–	–	–
AGGCAAGCUUUUUGCUGGUAUGAAGGAGAACAUGAGGAUCACCCAUGUAUUAGAGGUGUAGAGGAUUUGAGAAAGAA [JR_SHM208A_Sub003] (puzzle: Sensor for hsa-mir-208a)	–	–	–	96.8 nM	91.8 nM	134 nM
AGGCCAUCGGGAGGAUAUGGCACCUUAUUGGUGCCAGAAGGUCCAACAUGAGGAUCACCCAUGUGGGAGUGGUCUAAUGACCAC [Fiskers NG1(ss) - 4] (Eterna round: R96, puzzle: Same State NG 1)	64.3 nM	58.1 nM	64 nM	–	–	–
AGGCUCAGACGAGGAUAUAUGUGGUCACAUGAGGAUCACCCAUGUCUCGAGCUUCGGCUCGAGGCAUAGAAGGCGUCUGAGCCA [SSNG2/5-A1] (Eterna round: R96, puzzle: Same State NG 2)	662 nM	16.4 nM	184 nM	–	–	–
AGGCUCAGACUAGGAUAUGAUCAUGGCGCUUCGGCGCAUACAUGAGGAUCACCCAUGUAAAGUGAUCAGAAGGAGUCUGAGCCA [SSNG2/7-C1] (Eterna round: R96, puzzle: Same State NG 2)	9.82 nM	9.08 nM	13.6 nM	–	–	–
AGGGCCGCGGCACAGGAUAUGCACAGGUUCACAUGAGGAUCACCCAUGUGCUCUAGAUAACUUAAGCAGAAGGGUGUCAUGGUAA [Biarrace] (puzzle: Same State 2)	–	–	–	11.2 nM	12 nM	14.1 nM
AGUAGUUUAACAUGAGGAUCACCCAUGUAUCUAUCUGUAACCUAGGAUAUGGAGGUUUUAUUUAACCAGAAGGAGGAUUGUUUA [JR_SSNG3_Sub044] (Eterna round: R96, puzzle: Same State NG 3)	19.8 nM	17.6 nM	24.2 nM	–	–	–
AGUCCAGCAUGAGCUGGACAAAAGCAUGUACAUGAGGAUCACCCAUGUCAUGUACAAGCUUUUUGCUCGUCUUAAUA [Mat - hsa-mir-208a - Mod of JL - D35] (puzzle: Sensor for hsa-mir-208a)	–	–	–	513 nM	15.9 nM	534 nM
AGUCCAGCAUGAGCUGGACAAAAGCAUGUACAUGAGGAUCACCCAUGUUCAUGUACAAGCUUUUUGCUCGUCUUAAU [Mat - hsa-mir-208a - Mod of JL - 61] (puzzle: Sensor for hsa-mir-208a)	–	–	–	549 nM	15.9 nM	698 nM
AGUCCAGCCUGAGCUGGACAAAAGCAUGUACAUGAGGAUCACCCAUGUCAUGUGCAAGCUUUUUGCUCGUCUUAAAA [Zipper 46 - 6] (puzzle: Sensor for hsa-mir-208a)	–	–	–	61 nM	11.6 nM	67.9 nM
AGUCCAGCCUGAGCUGGACAAAAGCAUGUACAUGAGGAUCACCCAUGUUCAUGUACAAGCUUUUUGCUCGUCAUAAA [Mat - hsa-mir-208a - Mod of JL - 51] (puzzle: Sensor for hsa-mir-208a)	–	–	–	402 nM	14.9 nM	474 nM
AGUCCAGCCUGAGCUGGACAAAAGCAUGUACAUGAGGAUCACCCAUGUUCAUGUACAAGCUUUUUGCUCGUCGUAAU [Mat - hsa-mir-208a - Mod of JL - 48] (puzzle: Sensor for hsa-mir-208a)	–	–	–	501 nM	16.7 nM	611 nM
AGUCCAGCCUGAGCUGGACAAAAGCAUGUACAUGAGGAUCACCCAUGUUCAUGUACAAGCUUUUUGCUCGUCUUAAC [salish99_208a_r3_029] (puzzle: Sensor for hsa-mir-208a)	–	–	–	553 nM	16.8 nM	636 nM
AGUCCAGCCUGAGCUGGACAAAAGCAUGUACAUGAGGAUCACCCAUGUUCAUGUACAAGCUUUUUGCUCGUCUUUAA [salish99_208a_r3_096x] (Eterna round: R96, puzzle: Sensor for hsa-mir-208a)	559 nM	14.5 nM	577 nM	–	–	–
AGUCCAGCCUGAGCUGGACAAAAGCAUGUACAUGAGGAUCACCCAUGUUCAUGUACAAGCUUUUUGCUCGUCUUUAA [salish99_208a_r3_096x] (puzzle: Sensor for hsa-mir-208a)	–	–	–	658 nM	14.5 nM	985 nM
AGUCCAGCCUGAGCUGGACAAAUGCAUGUACAUGAGGAUCACCCAUGUUCAUGUACAAGCAUUUUGCUCGUCUUAAA [Sensor for hsa-mir-208a (JL zipper 55 mod - 61 to A)] (Eterna round: R96, puzzle: Sensor for hsa-mir-208a)	330 nM	13.5 nM	346 nM	–	–	–
AGUCCAGCCUGAGCUGGACGAAAGCAUGUACAUGAGGAUCACCCAUGUCAUGUACAAGCUUUUUGCUCGUCUUAAAA [Zipper 46 - 4] (puzzle: Sensor for hsa-mir-208a)	–	–	–	482 nM	15 nM	532 nM
AGUCCAGCCUGAGCUGGACUGAAGCAUGUACAUGAGGAUCACCCAUGUUCAUGUACAGGCUUUUUGCUCGUCUUAUG [JL-shm-2.02 JL mod] (Eterna round: R96, puzzle: Sensor for hsa-mir-208a)	619 nM	14.6 nM	676 nM	–	–	–
